Results on 4 molecules are retold here after publication PMC7196523.

In experiment [1] the target is MCPyV common T antigen (CT; shared N-terminal domain of LT and ST) peptide on HLA-A*03:01 (human). The experiment is described as follows: IFNγ ELISA.
For experiment [2], the target named is MCPyV large T antigen (LT) peptide on HLA-A*03:01 (human). The experiment is described as follows: IFNγ ELISA. The settings on record: chains alpha TRAV3*00 CDR3:beta TRBV4-3*00 CDR3.
Setting [3] is: chains alpha TRAV12-1*00 CDR3:beta TRBV19*00 CDR3.

B1: TCR clonotype 2 specific for MCPyV CT AA 32–40 (subject 1233) (peptide)
chain 1: CVVNNNNNDMRF
chain 2: CASVSGQGVSPLHF
As for B1, the EC50 of peptide in experiment [1] (setting [3]) was 23.6 ng/mL.

B2: TCR clonotype 1 specific for MCPyV CT AA 32–40 (subject 1233) (peptide)
chain 1: CVVNGNNNDMRF
chain 2: CASSQGFGANVLTF
B2: in experiment [1] (setting [3]), the EC50 of peptide stood at 7.6 ng/mL.

B3: TCR clonotype 1 specific for MCPyV LT AA 95–103 (subject 1233) (peptide)
chain 1: CAVRALGNAGNMLTF
chain 2: CASSPNPQGANMDTQYF
Turning to B3, the EC50 of peptide in experiment [2] came out at 1.9 ng/mL.

B4: TCR clonotype 3 specific for MCPyV CT AA 32–40 (subject 1233) (peptide)
chain 1: CAGARNDYKLSF
chain 2: CATSRDGAGLVNQPQHF
In the case of B4, the EC50 of peptide in experiment [1] (chains alpha TRAV25*00 CDR3:beta TRBV15*00 CDR3) was 23.4 ng/mL.
